{"source": "paper PMC2329594", "about": "“A Minimal Fragment of MUC1 Mediates Growth of Cancer Cells” (PLoS ONE, 2008)", "biological_target": "the molecule itself", "experiment": "gold nanoparticle aggregation (colour change); histidine-tagged peptides (100 uM in PBS) on NTA-Ni gold nanoparticles, alone or mixed; colour change after 15 minutes", "data": [{"protein": "VQLTLAFREGTINVHDVETQFNQYKTEAASRYNLTISDVSVSDVPFPF (peptide, UniProt P15941 1101-1148, looked up, MUC1, human; also called shifted frame peptide; N-1101-1148-C; source: synthetic peptide)", "note": "[MUC1_(ecd-EXT) peptide]", "values": [{"measurement": "binding result", "result": "binds"}]}, {"protein": "GGFLGLSNIKFRPGSVVVQLTLAFRE (peptide, UniProt P15941 1084-1109, looked up, MUC1, human; also called N-1084-1109-C; source: synthetic peptide)", "note": "[MUC1_(SAD (self-aggregation domain)) peptide]", "values": [{"measurement": "binding result", "result": "binds"}]}]}
